Assay results: publication PMC10939263

B1: SRC kinase associated phosphoprotein 1 (SKAP1), wild type, N2-fused [human] / SRMS, N1-fused [not stated] (parent)
chain 1: MQAAALPEEIRWLLEDAEEFLAEGLRNENLSAVARDHRDHILRGFQQIKARYYWDFQPQGGDIGQDSSDDNHSGTLGLSLTSDAPFLSDYQDEGMEDIVKGAQELDNVIKQGYLEKKSKDHSFFGSEWQKRWCVVSRGLFYYYANEKSKQPKGTFLIKGYGVRMAPHLRRDSKKESCFELTSQDRRSYEFTATSPAEARDWVDQISFLLKDLSSLTIPYEEDEEEEEKEETYDDIDGFDSPSCGSQCRPTILPGSVGIKEPTEEKEEEDIYEVLPDEEHDLEEDESGTRRKGVDYASYYQGLWDCHGDQPDELSFQRGDLIRILSKEYNMYGWWVGELNSLVGIVPKEYLTTAFEVEER
chain 2: MEPFLRRRLAFLSFFWDKIWPAGGEPDHGTPGSLDPNTDPVPTLPAEPCSPFPQLFLALYDFTARCGGELSVRRGDRLCALEEGGGYIFARRLSGQPSAGLVPITHVAKASPETLSDQPWYFSGVSRTQAQQLLLSPPNEPGAFLIRPSESSLGGYSLSVRAQAKVCHYRVSMAADGSLYLQKGRLFPGLEELLTYYKANWKLIQNPLLQPCMPQKAPRQDVWERPHSEFALGRKLGEGYFGEVWEGLWLGSLPVAIKVIKSANMKLTDLAKEIQTLKGLRHERLIRLHAVCSGGEPVYIVTELMRKGNLQAFLGTPEGRALRLPPLLGFACQVAEGMSYLEEQRVVHRDLAARNVLVDDGLACKVADFGLARLLKDDIYSPSSSSKIPVKWTAPEAANYRVFSQKSDVWSFGVLLHEVFTYGQCPYEGMTNHETLQQIMRGYRLPRPAACPAEVYVLMLECWRSSPEERPSFATLREKLHAIHRCHP
B2: SRC kinase associated phosphoprotein 1 (SKAP1), wild type, N2-fused [human] / LYN, N1-fused [not stated] (parent)
chain 1: B1 chain 1
chain 2: MGCIKSKGKDSLSDDGVDLKTQPVRNTERTIYVRDPTSNKQQRPVPESQLLPGQRFQTKDPEEQGDIVVALYPYDGIHPDDLSFKKGEKMKVLEEHGEWWKAKSLLTKKEGFIPSNYVAKLNTLETEEWFFKDITRKDAERQLLAPGNSAGAFLIRESETLKGSFSLSVRDFDPVHGDVIKHYKIRSLDNGGYYISPRITFPCISDMIKHYQKQADGLCRRLEKACISPKPQKPWDKDAWEIPRESIKLVKRLGAGQFGEVWMGYYNNSTKVAVKTLKPGTMSVQAFLEEANLMKTLQHDKLVRLYAVVTREEPIYIITEYMAKGSLLDFLKSDEGGKVLLPKLIDFSAQIAEGMAYIERKNYIHRDLRAANVLVSESLMCKIADFGLARVIEDNEYTAREGAKFPIKWTAPEAINFGCFTIKSDVWSFGILLYEIVTYGKIPYPGRTNADVMTALSQGYRMPRVENCPDELYDIMKMCWKEKAEERPTFDYLQSVLDDFYTATEGQYQQQP
B3: SRC kinase associated phosphoprotein 1 (SKAP1), wild type, N2-fused [human] / FRK, N1-fused [not stated] (parent)
chain 1: B1 chain 1
chain 2: MSNICQRLWEYLEPYLPCLSTEADKSTVIENPGALCSPQSQRHGHYFVALFDYQARTAEDLSFRAGDKLQVLDTLHEGWWFARHLEKRRDGSSQQLQGYIPSNYVAEDRSLQAEPWFFGAIGRSDAEKQLLYSENKTGSFLIRESESQKGEFSLSVLDGAVVKHYRIKRLDEGGFFLTRRRIFSTLNEFVSHYTKTSDGLCVKLGKPCLKIQVPAPFDLSYKTVDQWEIDRNSIQLLKRLGSGQFGEVWEGLWNNTTPVAVKTLKPGSMDPNDFLREAQIMKNLRHPKLIQLYAVCTLEDPIYIITELMRHGSLQEYLQNDTGSKIHLTQQVDMAAQVASGMAYLESRNYIHRDLAARNVLVGEHNIYKVADFGLARVFKVDNEDIYESRHEIKLPVKWTAPEAIRSNKFSIKSDVWSFGILLYEIITYGKMPYSGMTGAQVIQMLAQNYRLPQPSNCPQQFYNIMLECWNAEPKERPTFETLRWKLEDYFETDSSYSDANNFIR

Variants of: B1
Assay: luciferase complementation assay (normalized luciferase ratio, NLR)
Details: with SRMS, HEK293T cells, one experiment, read off a plot

Row | ratio to parent | Variant
1 | 1.2 | chain 1 W333K

Variants of: B2
Assay: as above
Details: with LYN, HEK293T cells, one experiment, read off a plot

Row | ratio to parent | Variant
2 | 1.4 | chain 1 D120K
3 | 1.8 | chain 1 W333K

Variants of: B3
Assay: as above
Details: with FRK, HEK293T cells, one experiment, read off a plot

Row | ratio to parent | Variant
4 | 1 | chain 1 D120K
5 | 0.84 | chain 1 W333K
